Substitutions are numbered along the chain they refer to.
T1: cynomolgus monkey CD137 (cynomolgus monkey, UniProt Q07011 24-186 (human entry), limits assumed)
T1 construct: Soluble analyte in the Biacore assay; also called cyno CD137
T1 chain: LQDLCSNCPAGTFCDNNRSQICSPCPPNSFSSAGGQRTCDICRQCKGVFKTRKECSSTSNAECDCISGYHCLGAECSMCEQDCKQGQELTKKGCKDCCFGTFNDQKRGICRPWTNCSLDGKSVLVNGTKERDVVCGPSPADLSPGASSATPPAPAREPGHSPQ

B1: GPC3 ERY22-dBBDu_186/L106 (bispecific antibody, human IgG1, kappa, L234A L235A, N297A)
heavy 1: DIVMTQSPLSLPVTPGEPASISCRSSQSLVHSNRNTYLHWYQQKPGQAPRLLIYKVSNRFSGVPDRFSGSGSGTDFTLKISRVEAEDVGVYYCSQNTHVPPTFGQGTKLEIKSSASTKGPSVFPLAPSSKSTSGGTAALGCLVKDYFPEPVTVSWNSGALTSGVHTFPAVLQSSGLYSLSSVVTVPSSSLGTQTYICNVNHKPSNTKVDKKVEPKSCDKTHTCPPCPAPEAAGGPSVFLFPPKPKDTLMISRTPEVTCVVVDVSHEDPEVKFNWYVDGVEVHNAKTKPREEQYASTYRVVSVLTVLHQDWLNGKEYKCKVSNKALPAPIEKTISKAKGQPREPQVCTLPPSRDELTKNQVSLWCLVKGFYPSDIAVEWESNGQPENNYKTTPPVLDSDGSFFLYSKLTVDKSRWQQGNVFSCSVMHEALHNHYTQKSLSLSPHHHHHHHH
light 1: QVQLVQSGAEVKKPGASVKVSCKASGYTFTDYEMHWIRQPPGQGLEWIGAIDPKTGDTAYSQKFKGRVTLTADKSTSTAYMELSSLTSEDTAVYYCTRFYSYTYWGQGTLVTVSSASVAAPSVFIFPPSDEQLKSGTASVVCLLNNFYPREAKVQWKVDNALQSGNSQESVTEQDSKDSTYSLSSTLTLSKADYEKHKVYACEVTHQGLSSPVTKSFNRGEC
heavy 2: QVQLVESGGGLVQPGRSLRLSCAASGFTFSNAWMHWVRQAPGKGLEWVAQIKDRSNQYATYYAPSVKGRFTISRDDSKNSIYLQMNSLKTEDTAVYYCHYVHYAQASTVLPAFGVDAWGQGTTVTVSSASTKGPSVFPLAPSSKSTSGGTAALGCLVKDYFPEPVTVSWNSGALTSGVHTFPAVLQSSGLYSLSSVVTVPSSSLGTQTYICNVNHKPSNTKVDKKVEPKSCDKTHTCPPCPAPEAAGGPSVFLFPPKPKDTLMISRTPEVTCVVVDVSHEDPEVKFNWYVDGVEVHNAKTKPREEQYASTYRVVSVLTVLHQDWLNGKEYKCKVSNKALPAPIEKTISKAKGQPREPQVYTLPPSRCELTKNQVSLSCAVKGFYPSDIAVEWESNGQPENNYKTTPPVLDSDGSFFLVSKLTVDKSRWQQGNVFSCSVMHEALHNHYTQKSLSLSPDYKDDDDK
light 2: DIVMTQSPLSLPVTPGEPASISCSTSEELLHINRFIFLHWYQQKPGQAPRLLIYKVANRFMGVPDRFSGSGSGTDFTLKISRVEAEDVGVYYCAQGSQVPFTFGQGTKLEIKRTVAAPSVFIFPPSDEQLKSGTASVVCLLNNFYPREAKVQWKVDNALQSGNSQESVTEQDSKDSTYSLSSTLTLSKADYEKHKVYACEVTHQGLSSPVTKSFNRGEC
B2: GPC3 ERY22-dBBDu_189/L116 (bispecific antibody, human IgG1, kappa, L234A L235A, N297A)
heavy 1: B1 heavy 1
light 1: B1 light 1
heavy 2: B1 heavy 2 with V48I, T108S, V109L, A112S
light 2: B1 light 2 with T25S, E27Q, L30V, I32A, F35Q, F37Y, M61P, S97T
B3: GPC3 ERY22-dBBDu_189/L119 (bispecific antibody, human IgG1, kappa, L234A L235A, N297A)
heavy 1: B1 heavy 1
light 1: B1 light 1
heavy 2: B1 heavy 2 with V48I, T108S, V109L, A112S
light 2: B1 light 2 with S24T, T25A, E27Q, L30V, A57S, M61I
B4: dBBDu_186 / dBBDu_L096 (antibody, human IgG1, V domains shown)
VH: QVQLVESGGGLVQPGRSLRLSCAASGFTFSNAWMHWVRQAPGKGLEWVAQIKDRSNQYATYYAPSVKGRFTISRDDSKNSIYLQMNSLKTEDTAVYYCHYVHYAQASTVLPAFGVDAWGQGTTVTVSS
VL: DIVMTQSPLSLPVTPGEPASISCRTSQELVHINRYIFLHWYQQKPGQAPRLLIYKVYNRFQGVPDRFSGSGSGTDFTLKISRVEAEDVGVYYCAQGTSVPYTFGQGTKLEIK
notes: Tested as IgG (human IgG1 constant region, kappa light chain); also called dBBDu186/L096
B5: dBBDu_167 / dBBDu_L091 (antibody, human IgG1, V domains shown)
VH: B4 VH with R54K, S55G, Q57L, T60A, Q105S, S107G, T108G, V109G, A112G
VL: DIVMTQSPLSLPVTPGEPASISCSASESLLHNNRHTYLHWYQQKPGQAPRLLIYRVSNRFNGVPDRFSGSGSGTDFTLKISRVEAEDVGVYYCGQGTQVPFTFGQGTKLEIK
notes: Tested as IgG (human IgG1 constant region, kappa light chain); also called dBBDu167/L091
B6: dBBDu_183 / dBBDu_L063 (antibody, V domains shown)
VH: B4 VH with R54K, S55G, Q57A, T60A, Q105S
VL: B4 VL with T25S, I32T, Y35H, I36T, F37Y, Y57S, Q61P, S98Q, Y101F
notes: Tested as IgG (Fab genes converted into IgG format, human IgG1 constant region, kappa light chain); also called dBBDu183/L063; dBBDu_183/L063
B7: dBBDu_183 / dBBDu_L067 (antibody, human IgG1, V domains shown)
VH: B4 VH with R54K, S55G, Q57A, T60A, Q105S
VL: B5 VL with S24Q, A25S, L30V, N32V, R55K, S57Y, N61P, G94A, Q98S
notes: Tested as IgG (human IgG1 constant region, kappa light chain); also called dBBDu183/L067
B8: dBBDu_183 / dBBDu_L072 (antibody, human IgG1, V domains shown)
VH: B4 VH with R54K, S55G, Q57A, T60A, Q105S
VL: B4 VL with R24Q, T25A, I32M, Y35N, I36T, F37Y, Y57S, Q61P, Y101F
notes: Tested as IgG (human IgG1 constant region, kappa light chain); also called dBBDu183/L072; H183L072
B9: dBBDu_189 / dBBDu_L116 (antibody, human IgG1, V domains shown)
VH: B4 VH with V48I, T108S, V109L, A112S
VL: B4 VL with R24S, T25S, I32A, Y35Q, F37Y, Y57A, Q61P, S98Q, Y101F
notes: Tested as IgG (human IgG1 constant region, kappa light chain); also called dBBDu189/L116
B10: dBBDu_189 / dBBDu_L112 (antibody, human IgG1, V domains shown)
VH: B4 VH with V48I, T108S, V109L, A112S
VL: B4 VL with R24T, T25S, S26D, I32M, Y35H, I36T, F37Y, Q61P, Y101F
notes: Tested as IgG (human IgG1 constant region, kappa light chain); also called dBBDu189/L112

What follows are binders tested against human CD137 expressed constitutively on the B cell strain HDLM-2 (human, UniProt Q07011 24-255) (assay: cell-based or functional assay).
Chain of human CD137 expressed constitutively on the B cell strain HDLM-2 (Q07011 24-255): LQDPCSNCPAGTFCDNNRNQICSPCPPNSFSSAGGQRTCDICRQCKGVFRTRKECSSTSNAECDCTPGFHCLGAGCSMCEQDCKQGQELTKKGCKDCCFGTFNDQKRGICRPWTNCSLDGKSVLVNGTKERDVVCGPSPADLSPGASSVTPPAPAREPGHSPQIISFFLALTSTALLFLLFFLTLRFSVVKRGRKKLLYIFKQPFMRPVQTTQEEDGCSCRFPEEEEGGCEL

Row | Binder | Agonistic activity compared to B, antibody 6 µg/mL | Agonistic activity compared to B, antibody 30 µg/mL | Agonistic activity compared to Ctrl, antibody 6 µg/mL | Agonistic activity compared to Ctrl, antibody 30 µg/mL | hIL-6 (pg/mL), antibody 6 µg/mL | hIL-6 (pg/mL), antibody 30 µg/mL
1 | B1 | 13.2% | 19.4% | 45.8% | 73.6% | 1480 pg/mL | 1570 pg/mL
2 | B2 | 8.28% | 19.2% | 28.7% | 72.9% | 1300 pg/mL | 1570 pg/mL
3 | B3 | 6.92% | 20.4% | 24% | 77.3% | 1260 pg/mL | 1610 pg/mL

Molecular target: T1, cynomolgus monkey CD137
Experiment: SPR Biacore T200, IgG captured on protein A, antigen as analyte, 25 C;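 further: antigens flowed over a CM3 chip for 120 s association, KD derived from ka and kd, running buffer (ACES, NaCl, Tween20, pH 7.4) served as blank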
Description: (§1) Sensor chip CM3 (GE Healthcare) was immobilized with an appropriate amount of sure protein A (GE Healthcare) by amine coupling. The selected antibodies were captured by the chip to allow interaction to human CD3ed, human CD137 and cyno CD137 as an antigen. The running buffer used was 20 mmol/l ACES, 150 mmol/l NaCl, 0.05% (w/v) Tween20, pH 7.4. All measurements were carried out at 25 degrees C. The antigens were diluted using the running buffer.
(§2) Diluted antigen solutions and the running buffer which is the blank were loaded at a flow rate of 30 micro L/min for 120 seconds to allow each of the antigens to interact with the antibody captured on the sensor chip. […] Next, to regenerate the sensor chip, 10 mmol/L glycine-HCl, pH 1.5 was loaded at a flow rate of 30 micro L/min for 30 seconds and 50 mmol/L NaOH was loaded at a flow rate 30 micro L/min for 30 seconds.
(§3) Kinetic parameters such as the association rate constant ka (1/Ms) and the dissociation rate constant kd (1/s) were calculated based on the sensorgrams obtained by the measurements. The dissociation constant KD(M) was calculated from these constants. Each parameter was calculated using the Biacore T200 Evaluation Software (GE Healthcare).

Row | Binder | Kd | koff | kon
4 | B4 | 205 µM | 0.00223 s⁻¹ | 
5 | B5 | 4.17 µM | 0.0101 s⁻¹ | 2430 M⁻¹ s⁻¹
6 | B6 | 3.12 µM | 0.00457 s⁻¹ | 1470 M⁻¹ s⁻¹
7 | B7 | 6.2 µM | 0.00813 s⁻¹ | 1310 M⁻¹ s⁻¹
8 | B8 | 4.87 µM | 0.00593 s⁻¹ | 1220 M⁻¹ s⁻¹
9 | B9 | 11.1 µM | 0.00823 s⁻¹ | 744 M⁻¹ s⁻¹
10 | B10 | 5.76 µM | 0.0286 s⁻¹ | 4980 M⁻¹ s⁻¹

What follows are binders tested against T2, human CD3ed (human, UniProt P07766 23-126; P04234 22-105, limits assumed) in the same assay as above.
T2 construct: The construct injected as 'human CD3ed' in the Biacore assay is not defined; also called human CD3 epsilon/delta heterodimer
T2 sequence (P07766 23-126 limits assumed, chain 1 of 2): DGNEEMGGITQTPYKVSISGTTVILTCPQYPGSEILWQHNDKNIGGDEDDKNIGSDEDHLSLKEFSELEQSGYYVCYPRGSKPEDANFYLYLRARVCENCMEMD
T2 sequence (P04234 22-105 limits assumed, chain 2 of 2): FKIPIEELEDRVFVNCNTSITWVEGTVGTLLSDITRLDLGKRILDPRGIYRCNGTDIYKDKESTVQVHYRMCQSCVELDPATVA
Description: as §1, §2, §3

Row | Binder | Kd | koff | kon
11 | B4 | 9.11 µM | 0.102 s⁻¹ | 11200 M⁻¹ s⁻¹
12 | B5 | 0.413 µM | 0.0216 s⁻¹ | 52400 M⁻¹ s⁻¹
13 | B6 | 0.276 µM | 0.0157 s⁻¹ | 56900 M⁻¹ s⁻¹
14 | B7 | 0.217 µM | 0.0193 s⁻¹ | 88900 M⁻¹ s⁻¹
15 | B8 | 0.217 µM | 0.00785 s⁻¹ | 36100 M⁻¹ s⁻¹
16 | B9 | 0.209 µM | 0.00434 s⁻¹ | 20800 M⁻¹ s⁻¹
17 | B10 | 0.331 µM | 0.01 s⁻¹ | 30300 M⁻¹ s⁻¹

Source: US20240270846A1 (published 2024)
